The supplement of paper PMC9170038

Test system: MS2 coat protein
Test: apparent KD of MS2 coat protein; designed switch direction (-1 OFF switch, 1 ON switch): -1; higher = weaker reporter binding
Method in brief: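 Stalled E. coli RNA polymerase transcribed designed RNA switches on Illumina chips, which were then titrated with SNAP-549-labelled MS2 coat protein, doubling from 0.7 or 1.5 nM to 3 µM. Steps lasted from 0.8–1.5 h at the lowest concentration to 10–20 min at the highest. The apparent KD is each design's median over clusters of curve-fitted normalised fluorescence.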

[1] = Eterna round: R95, input ligand: FMN 200 uM
[2] = Eterna round: R95, input ligand: microRNA oligo, concentration not stated
[3] = Eterna round: R95, input ligand: none
[4] = input ligand: microRNA oligo, concentration not stated

Sequence	apparent KD of MS2 coat protein [1]	apparent KD of MS2 coat protein [2]	apparent KD of MS2 coat protein [3]	apparent KD of MS2 coat protein [4]	apparent KD of MS2 coat protein (input ligand: FMN 200 uM)	apparent KD of MS2 coat protein (input ligand: none)
GAGGACUGAGGAUAUGCGUUGGUACCUCGUAGUAAGCAAAGACAUGAGGAUCACCCAUGUAGAAGGCGGAAAAG [Xegeinenxe] (puzzle: Exclusion 2)	0.15 µM	0.0586 µM	0.0526 µM	–	–	–
UUUAUAUAGUAAGGAUAUGUAUUAUUUUUGUCAACAGAAGGUACUGACAUGAGGAUCACCCAUGUUUUAGUGUGGGCAUGUAGU [JMF's solution 99] (Eterna round: R96, puzzle: Exclusion NG 1)	–	–	–	0.177 µM	–	–
AGCAUGUGAGGAUAUGCGAAGGGAAGGAGAGGGAAAGAGAAGCAGAAGGCACAUGAGGAUCACCCAUGUAAGGG [AK-MS2ROC-r4-exclusion4-8.1] (Eterna round: R97, puzzle: Exclusion 4)	–	–	–	–	0.0639 µM	0.969 µM
UUUAGUUCAGGAUAUGUAGAUUUUAACAUGAGGAUCACCCAUGUAGAUCCUGAAUUAACUACAGAAGGGAACAUUC [Exclusion 5: 2:c] (Eterna round: R96, puzzle: Exclusion 5)	–	–	–	0.0156 µM	0.0508 µM	0.0207 µM
GCCGUACAAGGAUAUCUAUCGCAAAACAUGAGGAUCACCCAUGUGUAUCCUAACCGGCGAAGAGAAGGUGUAGUUA [Letelabe] (Eterna round: R97, puzzle: Exclusion 5)	–	–	–	–	0.0244 µM	0.0181 µM
AAAAGGCAGCAGGAUAUAGUCACCAUCGGGUUGCUAGAAGGGCUAACAUGAGGAUCACCCAUGUGGGUGCAAAA [Soinsoan] (puzzle: Exclusion 6)	0.578 µM	0.452 µM	0.667 µM	–	–	–
AAUAACAGAGGAUAUACUAUUUUAUGUAUUUAUUAUUUUAAACAUGAGGAUCACCCAUGUAGAAGGCUGAAUAA [JMF 11] (puzzle: Exclusion 2)	–	0.0198 µM	–	–	–	–
CAUGAUCUUCGGAUCAUGUACAUGAGGAUCACCCAUGUGACGAGUAGAUCCUCAAACAAGCUUUUUGCUCGUCUUAU [Sensor v3 - Turn-off variant 1 - 19] (puzzle: Sensor v3, turn-off variant 1)	0.0507 µM	0.0121 µM	0.0645 µM	–	–	–
UGCGAAGAGUGAGGAUAUGUGCGACAAAGUUGCACAGAAGGCACAUGAGGAUCACCCAUGUAAGCUAGGUCGAAAGACCUAGCG [Omei Exc(NG)1 Av5] (Eterna round: R96, puzzle: Exclusion NG 1)	–	–	–	0.0406 µM	0.106 µM	0.0434 µM
GAAUAGGCAGGAUAUACAUGAGGAUCACCCAUGUGCUUGCGAUCGGCAAGCGAACAACGUAGAAGGGCCUUAAC [ChP 13.04.2015 #13] (puzzle: Exclusion 3)	–	0.0158 µM	–	–	–	–
ACUCCUCCUGUUAGGAUAUGCAUCGGGCUUCCGCAGCAGAAGGAACAUGAGGAUCACCCAUGUCAAAUAAAAUC [Inxebexe] (puzzle: Brourd's mod of Exclusion 4)	–	0.0189 µM	–	–	–	–
GUCAGCUCGUGAGGAUAUACAUGAGGAUCACCCAUGUGGUCAAUAGCAGCUUCGGCUGCAAUAAUGUAGAAGGCACGAGCUGAC [ENG2/8-D] (Eterna round: R96, puzzle: Exclusion NG 2)	–	–	–	1.03 µM	0.0574 µM	0.208 µM
ACCUCACAUGAGGAUCACCCAUGUCAGGAUAUACAAACCGUGAUAAGACACGGUCGUAGUAGAAGGGACUAUGG [Xerereonte] (puzzle: Exclusion 1)	–	0.0988 µM	–	–	–	–
CGCCGAGUGUUAGGAUAUUACAAGCAUAAGCGGUAAGAAGGAACAUGAGGAUCACCCAUGUACUGUCCCAUCGGGACAGGUUUC [Qule] (Eterna round: R96, puzzle: Exclusion NG 1)	–	–	–	0.0443 µM	0.292 µM	0.0768 µM
CAUUAUUAUCGAGGAUAUCCUAUUGUAAUUCUGGGAGAAGGCGGACUCAACAUGAGGAUCACCCAUGUAAGACGGGUGCUAGAG [Ex NG1 #24] (Eterna round: R96, puzzle: Exclusion NG 1)	–	–	–	0.236 µM	0.306 µM	0.276 µM
